Measured values as given in the supplement of paper PMC10567573.
± gives the standard deviation.

Assay: protein stability index of a GFP-peptide fusion (GPS, HEK-293T) (PSI 1-6); higher = more stable
[1] = treatment: DMSO, c terminus: a fixed tail appended
[2] = treatment: MLN4924 1 uM, 8 h, c terminus: a fixed tail appended
[3] = treatment: DMSO, c terminus: native
[4] = treatment: MLN4924 1 uM, 8 h, c terminus: native
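Further: 24-mer peptide tiles fused after GFP, lentivirally expressed, FACS-sorted into six equal bins by GFP/DsRed ratio, decoded by Illumina sequencing, PSI is the read-weighted mean bin number.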

| Sequence | protein stability index [1] | protein stability index [2] | protein stability index [3] | protein stability index [4] |
| --- | --- | --- | --- | --- |
| YFISTVKRSWTSAQNACSEHGATL [CD69] | 2.09 ± 0.49 | 2.07 ± 0.3 | – | – |
| PESPGGTTTLEGSPSVPCIFCEEH [ZNF277] | 4.82 ± 0.3 | 4.82 ± 0.16 | – | – |
| LPHDFIDSLEKTDDDKYKITLKYP [NLN] | 3.7 ± 0.3 | 3.13 ± 0.089 | – | – |
| QAPISAPEYTYGISNIDTTIEGTS [MFF] | 4.67 ± 0.42 | 4.55 ± 0.21 | – | – |
| KDVRRHLVVHTGCKDFLCQFCAQR [PLAGL1] | 3.44 ± 0.08 | 3.55 ± 0.21 | – | – |
| LVEDMQRELGRLRQQVTNHGRGTE [ZNF263] | 3.35 ± 0.33 | 3.55 ± 0.22 | – | – |
| QKEQQERLREAAALGDIREVQKLV [ANKRD40] | 4.67 ± 0.25 | 4.74 ± 0.25 | – | – |
| GNNEDVSFSRPADLDLIQSTPFKP [MFF] | 4.36 ± 0.059 | 5.06 ± 0.56 | – | – |
| LWEALCSQGAISEGAQRDRFPGRK [C22orf31] | 3.11 ± 0.12 | 3.3 ± 0.32 | – | – |
| LARLEERSSEFYRVTTEQYQKAAE [CHCHD3] | 4.29 ± 0.27 | 4.29 ± 0.21 | – | – |
| TQRQYKEDESQSEEENDYRNLDAS [CEP70] | 5.41 ± 0.25 | 5.51 ± 0.6 | – | – |
| SVRGYMMSKQRERQLRRRALHPER [RETREG3] | 3.43 ± 0.047 | 3.73 ± 0.31 | – | – |
| AEEAGLKNNDLVVAVNGESVETLD [PDZK1] | 5.49 ± 0.2 | 5.51 ± 0.26 | – | – |
| GIELMEVDPIGHLYIFATCLGLSY [MAGEA3] | 2.72 ± 0.9 | 2.85 ± 1.2 | – | – |
| NPVYYGPSDFFIGAVIEVFGHRFI [EFHC1] | 3.04 ± 0.7 | 2.44 ± 0.79 | – | – |
| SAVLFYVNMYVSIVFFGLISFDRY [P2RY14] | 3.04 ± 0.35 | 3.22 ± 0.36 | – | – |
| RQRFRHLRYQETPGPREALSQLRV [ZNF232] | 3.13 ± 0.27 | 3.39 ± 0.28 | – | – |
| LAIDFIDEGRLLLEFDLLIFSFGQ [SOAT2] | 3.35 ± 0.39 | 2.78 ± 0.57 | – | – |
| IWAQGWVPAAGGPAPKRGYSSEMK [AUH] | – | 2.9 ± 0.29 | – | – |
| INLPVEEFNELLSKYQLSEAQLSL [NFE2L1] | 2.47 ± 0.44 | 2.51 ± 0.21 | – | – |
| TLYRPEEGYCQAQAPIAAVLLMHM [TBC1D10A] | 2.52 ± 0.42 | 2.43 ± 0.45 | – | – |

| Sequence | protein stability index [1] | protein stability index [2] | protein stability index [3] | protein stability index [4] |
| --- | --- | --- | --- | --- |
| YGTQRTLILESQNWRYATGGWETV [FUT8] | 2.1 ± 0.13 | 2.16 ± 0.14 | – | – |
| IALDLTPVIEELTNAGFLQTESEL [FAN1] | 2.46 ± 0.26 | 2.57 ± 0.37 | – | – |
| MLHHHCRRNPELQEELQIQAAVAA [ASB7] | 3.47 ± 0.29 | 3.59 ± 0.26 | – | – |
| GGGMRVCGFGGGAGSVFGGGFGGG [KRT15] | 2.03 ± 0.33 | 1.94 ± 0.24 | – | – |
| LEQIMESVKSKIGELEDESLNRAC [CEP70] | 4.47 ± 0.35 | 4.46 ± 0.36 | – | – |
| VGRLKRERSMSENAVRQNGQLVRN [MFF] | 5 ± 0.16 | 4.94 ± 0.078 | – | – |
| SDNSGQVSPPESPTVTTSWQSESL [BCL2L13] | 5.13 ± 0.2 | 5.02 ± 0.23 | – | – |
| RAVRDRNLLRDDRVLQNLLTIEER [CCND2] | 3.91 ± 0.21 | 3.89 ± 0.17 | – | – |
| VDGKTIKAQIWDTAGQERYRAITS [RAB11A] | 3.34 ± 0.19 | 3.68 ± 0.22 | – | – |
| YHPEEFVCSQCGKVLEEGGFFEEK [PDLIM7] | 3.94 ± 0.5 | 3.93 ± 0.57 | – | – |
| CLFSLINGDDMFVTFAAMQAQQGR [MCOLN1] | 2.97 ± 0.47 | 2.74 ± 0.66 | – | – |
| ALLALDENFDHNTLALILQIPTQN [PPFIA4] | 2.21 ± 0.47 | 2.17 ± 0.29 | – | – |
| MDLLTQSLGVDTLPPPDPNPPRAE [APBB1IP] | 4.85 ± 0.2 | 4.87 ± 0.14 | – | – |
| STSSSFPSSFPSSSSSSSSSCYPL [MAGEA10] | 3.73 ± 0.11 | 3.82 ± 0.32 | – | – |
| QVLVKDFTFEGFSRLRFLNLGRMI [ZER1] | 2.07 ± 0.22 | 2.08 ± 0.23 | – | – |
| FARYPNGVVVHYFCSKEVNPADT [VPS39] | – | – | 2.4 ± 0.22 | 2.27 ± 0.18 |
| NNQDFIPFTKKRVGVDRAFPLKPM [ZC2HC1C] | 2.85 ± 0.39 | 3.26 ± 0.45 | – | – |
| PGAFGTILTFLRAGKLRLLREMCA [KCNG1] | 2.84 ± 0.33 | 2.8 ± 0.062 | – | – |
| QAGAARLEEELRQLKEEMARHLRE [PRPH] | 4.15 ± 0.37 | 4.63 ± 0.3 | – | – |
| PHGQYGGHHQGMPGYLPGAMPPYG [ZNF207] | 2.93 ± 0.33 | 3.09 ± 0.41 | – | – |
| TEALILQLFSQIGPCKNCKMIMDT [TIA1] | 2.75 ± 0.37 | 2.53 ± 0.41 | – | – |

| Sequence | protein stability index [1] | protein stability index [2] | protein stability index [3] | protein stability index [4] |
| --- | --- | --- | --- | --- |
| NQGFLKVERYHNLCQKQVKAQLPR [FBXO28] | 2.76 ± 0.47 | 2.64 ± 0.45 | – | – |
| VVPEKLDDLVPKGKKFLLLSINRY [ALG2] | 2.07 ± 0.36 | 2.08 ± 0.42 | – | – |
| LRNCKTYQARKPLWFYNTSLKFFL [RHOBTB3] | 2.68 ± 0.55 | 2.84 ± 0.87 | – | – |
| LEPVKKSRLQLLGATCMFVASKMK [CCND1] | 2.23 ± 0.16 | 2.12 ± 0.41 | – | – |
| GEVEEEADSCFGDDEDDSGTEES [CDC34] | – | – | 5.25 ± 0.37 | 5.29 ± 0.15 |
| SQSSASQPRLSYAEMAEDYPRYPD [CLCN6] | 4.83 ± 0.14 | 4.86 ± 0.13 | – | – |
| SLFAFKSFRENWQRAWVRALNEQA [C2CD2L] | 2.15 ± 0.08 | 2.1 ± 0.23 | – | – |
| RRFLLCLYLVGFLDLFGVSMVVPL [MFSD9] | 2.91 ± 0.57 | 3.4 ± 0.17 | – | – |
| RYGCGHRGCGDGCCCPSCYRRYRF [KRTAP19-2] | 3.29 ± 0.27 | 3.62 ± 0.54 | – | – |
| AEDEEMNRMHESMKLFDSICNNKW [GNAI1] | 3.97 ± 0.21 | 4.02 ± 0.22 | – | – |
| MLEDGPHNANRGQRLLAFSRGRA [CCDC70] | – | – | 2.99 ± 0.63 | 2.77 ± 0.41 |
| REIALAKKHGTQNKRAALQALKRK [CHMP4C] | 4.04 ± 0.14 | 4.29 ± 0.39 | – | – |
| ASQSPKKPPAKDPLADLNIKDFL [SNAP91] | – | – | 4.45 ± 0.29 | 4.58 ± 0.34 |
| TVFRAILDYYKTGIIRCPDGISIP [BTBD10] | 3.01 ± 0.24 | 2.56 ± 0.43 | – | – |
| LASLVSQGMIQLALSGASQPGPSG [RETREG3] | 2.89 ± 1.2 | 1.99 ± 0.66 | – | – |
| RLCRLAGASSPAAYDEALAELHAH [ZSWIM9] | 3.29 ± 0.36 | 3.33 ± 0.2 | – | – |
| GQGLKSYMTKPSKSLLPHLKTGNS [RTP4] | 3.62 ± 0.16 | 3.63 ± 0.25 | – | – |
| RVSDVQKVLQGGEQEIQFEDFTNT [PKD2L1] | 4.8 ± 0.6 | 4.85 ± 0.36 | – | – |
| PEGSQDRNTSWGVVQEPPGRASRF [TLE6] | 4.83 ± 0.23 | 4.57 ± 0.14 | – | – |
| ETHRAPDLVQWTRHMEAVKAQLLE [SOAT2] | 4.81 ± 0.21 | 4.53 ± 0.29 | – | – |
